Experiment [1] deals with human glucagon-like peptide 1 receptor (GLP-1R) (human, UniProt P43220). Put plainly: cell-based or functional assay.
Experiment [2] addresses T1, human GLP-2 receptor (hGLP2-R) (human, UniProt O95838).
T1 sequence: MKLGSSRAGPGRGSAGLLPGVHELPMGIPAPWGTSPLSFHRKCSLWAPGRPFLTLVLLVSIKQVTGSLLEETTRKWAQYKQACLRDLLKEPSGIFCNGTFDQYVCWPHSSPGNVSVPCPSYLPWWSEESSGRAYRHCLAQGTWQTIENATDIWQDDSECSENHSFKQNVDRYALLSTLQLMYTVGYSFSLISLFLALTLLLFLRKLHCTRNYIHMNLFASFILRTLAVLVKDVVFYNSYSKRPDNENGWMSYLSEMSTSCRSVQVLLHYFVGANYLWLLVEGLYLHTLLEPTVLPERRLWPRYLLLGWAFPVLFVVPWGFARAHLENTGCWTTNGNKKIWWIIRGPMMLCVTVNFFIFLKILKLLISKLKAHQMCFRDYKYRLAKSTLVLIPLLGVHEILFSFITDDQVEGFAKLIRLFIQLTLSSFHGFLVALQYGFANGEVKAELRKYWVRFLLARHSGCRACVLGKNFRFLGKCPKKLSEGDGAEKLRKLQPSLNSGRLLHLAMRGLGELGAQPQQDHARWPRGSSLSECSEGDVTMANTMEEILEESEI
Nature of the experiment: cell-based or functional assay.

Square brackets hold non-standard residues; d marks the D form. Aib = CC(C)(N)C(=O)O

B1: Compound 25 (peptide)
peptide: H-H[Aib]EGSFTSELATILDEQAARDFIAWLIAQKITD-OH
SMILES: CC[C@H](C)[C@H](NC(=O)[C@H](CC(C)C)NC(=O)[C@H](Cc1c[nH]c2ccccc12)NC(=O)[C@H](C)NC(=O)[C@@H](NC(=O)[C@H](Cc1ccccc1)NC(=O)[C@H](CC(=O)O)NC(=O)[C@H](CCCNC(=N)N)NC(=O)[C@H](C)NC(=O)[C@H](C)NC(=O)[C@H](CCC(N)=O)NC(=O)[C@H](CCC(=O)O)NC(=O)[C@H](CC(=O)O)NC(=O)[C@H](CC(C)C)NC(=O)[C@@H](NC(=O)[C@@H](NC(=O)[C@H](C)NC(=O)[C@H](CC(C)C)NC(=O)[C@H](CCC(=O)O)NC(=O)[C@H](CO)NC(=O)[C@@H](NC(=O)[C@H](Cc1ccccc1)NC(=O)[C@H](CO)NC(=O)CNC(=O)[C@H](CCC(=O)O)NC(=O)C(C)(C)NC(=O)[C@@H](N)Cc1c[nH]cn1)[C@@H](C)O)[C@@H](C)O)[C@@H](C)CC)[C@@H](C)CC)C(=O)N[C@@H](C)C(=O)N[C@@H](CCC(N)=O)C(=O)N[C@@H](CCCCN)C(=O)N[C@H](C(=O)N[C@H](C(=O)N[C@@H](CC(=O)O)C(=O)O)[C@@H](C)O)[C@@H](C)CC
On to B1, for which, in experiment [1], the “EC50 GLP-1 (nM); cAMP AlphaScreen” value amounted to 0.008 nM. Also, the “EC50 GLP-2 (nM); cAMP AlphaScreen” value in experiment [2] stood at 0.062 nM.

B2: Compound 21 (peptide)
peptide: H-H[Aib]EGTFTSELATILDEQAARDFIAWLHQHKITD-OH
SMILES: CC[C@H](C)[C@H](NC(=O)[C@H](Cc1ccccc1)NC(=O)[C@H](CC(=O)O)NC(=O)[C@H](CCCNC(=N)N)NC(=O)[C@H](C)NC(=O)[C@H](C)NC(=O)[C@H](CCC(N)=O)NC(=O)[C@H](CCC(=O)O)NC(=O)[C@H](CC(=O)O)NC(=O)[C@H](CC(C)C)NC(=O)[C@@H](NC(=O)[C@@H](NC(=O)[C@H](C)NC(=O)[C@H](CC(C)C)NC(=O)[C@H](CCC(=O)O)NC(=O)[C@H](CO)NC(=O)[C@@H](NC(=O)[C@H](Cc1ccccc1)NC(=O)[C@@H](NC(=O)CNC(=O)[C@H](CCC(=O)O)NC(=O)C(C)(C)NC(=O)[C@@H](N)Cc1c[nH]cn1)[C@@H](C)O)[C@@H](C)O)[C@@H](C)O)[C@@H](C)CC)C(=O)N[C@@H](C)C(=O)N[C@@H](Cc1c[nH]c2ccccc12)C(=O)N[C@@H](CC(C)C)C(=O)N[C@@H](Cc1c[nH]cn1)C(=O)N[C@@H](CCC(N)=O)C(=O)N[C@@H](Cc1c[nH]cn1)C(=O)N[C@@H](CCCCN)C(=O)N[C@H](C(=O)N[C@H](C(=O)N[C@@H](CC(=O)O)C(=O)O)[C@@H](C)O)[C@@H](C)CC
Turning to B2, in experiment [1], the “EC50 GLP-1 (nM); cAMP AlphaScreen” value is 0.049 nM. The “EC50 GLP-2 (nM); cAMP AlphaScreen” value in experiment [2] was 0.11 nM.

B3: Compound 24 (peptide)
peptide: H-H[Aib]EGSFTSELATILDEQAARDFIAWLQAHKITD-OH
SMILES: CC[C@H](C)[C@H](NC(=O)[C@H](Cc1ccccc1)NC(=O)[C@H](CC(=O)O)NC(=O)[C@H](CCCNC(=N)N)NC(=O)[C@H](C)NC(=O)[C@H](C)NC(=O)[C@H](CCC(N)=O)NC(=O)[C@H](CCC(=O)O)NC(=O)[C@H](CC(=O)O)NC(=O)[C@H](CC(C)C)NC(=O)[C@@H](NC(=O)[C@@H](NC(=O)[C@H](C)NC(=O)[C@H](CC(C)C)NC(=O)[C@H](CCC(=O)O)NC(=O)[C@H](CO)NC(=O)[C@@H](NC(=O)[C@H](Cc1ccccc1)NC(=O)[C@H](CO)NC(=O)CNC(=O)[C@H](CCC(=O)O)NC(=O)C(C)(C)NC(=O)[C@@H](N)Cc1c[nH]cn1)[C@@H](C)O)[C@@H](C)O)[C@@H](C)CC)C(=O)N[C@@H](C)C(=O)N[C@@H](Cc1c[nH]c2ccccc12)C(=O)N[C@@H](CC(C)C)C(=O)N[C@@H](CCC(N)=O)C(=O)N[C@@H](C)C(=O)N[C@@H](Cc1c[nH]cn1)C(=O)N[C@@H](CCCCN)C(=O)N[C@H](C(=O)N[C@H](C(=O)N[C@@H](CC(=O)O)C(=O)O)[C@@H](C)O)[C@@H](C)CC
For B3, the “EC50 GLP-1 (nM); cAMP AlphaScreen” value in experiment [1] came out at 0.042 nM. Moreover, the “EC50 GLP-2 (nM); cAMP AlphaScreen” value in experiment [2] is 0.049 nM.

B4: Compound 1 (peptide)
peptide: H-H[Aib]EGSFTSELATILDEQAARDFIAWLIAHKITD-OH
SMILES: CC[C@H](C)[C@H](NC(=O)[C@H](CC(C)C)NC(=O)[C@H](Cc1c[nH]c2ccccc12)NC(=O)[C@H](C)NC(=O)[C@@H](NC(=O)[C@H](Cc1ccccc1)NC(=O)[C@H](CC(=O)O)NC(=O)[C@H](CCCNC(=N)N)NC(=O)[C@H](C)NC(=O)[C@H](C)NC(=O)[C@H](CCC(N)=O)NC(=O)[C@H](CCC(=O)O)NC(=O)[C@H](CC(=O)O)NC(=O)[C@H](CC(C)C)NC(=O)[C@@H](NC(=O)[C@@H](NC(=O)[C@H](C)NC(=O)[C@H](CC(C)C)NC(=O)[C@H](CCC(=O)O)NC(=O)[C@H](CO)NC(=O)[C@@H](NC(=O)[C@H](Cc1ccccc1)NC(=O)[C@H](CO)NC(=O)CNC(=O)[C@H](CCC(=O)O)NC(=O)C(C)(C)NC(=O)[C@@H](N)Cc1c[nH]cn1)[C@@H](C)O)[C@@H](C)O)[C@@H](C)CC)[C@@H](C)CC)C(=O)N[C@@H](C)C(=O)N[C@@H](Cc1c[nH]cn1)C(=O)N[C@@H](CCCCN)C(=O)N[C@H](C(=O)N[C@H](C(=O)N[C@@H](CC(=O)O)C(=O)O)[C@@H](C)O)[C@@H](C)CC
Consider B4, for which the “EC50 GLP-1 (nM); cAMP AlphaScreen” value in experiment [1] was found to be 0.014 nM. For the same molecule, the “EC50 GLP-2 (nM); cAMP AlphaScreen” value in experiment [2] was found to be 0.036 nM.

B5: Compound 22 (peptide)
peptide: H-H[Aib]EGSFTSELATILDEQAARDFIAWLHAHKITD-OH
SMILES: CC[C@H](C)[C@H](NC(=O)[C@H](Cc1ccccc1)NC(=O)[C@H](CC(=O)O)NC(=O)[C@H](CCCNC(=N)N)NC(=O)[C@H](C)NC(=O)[C@H](C)NC(=O)[C@H](CCC(N)=O)NC(=O)[C@H](CCC(=O)O)NC(=O)[C@H](CC(=O)O)NC(=O)[C@H](CC(C)C)NC(=O)[C@@H](NC(=O)[C@@H](NC(=O)[C@H](C)NC(=O)[C@H](CC(C)C)NC(=O)[C@H](CCC(=O)O)NC(=O)[C@H](CO)NC(=O)[C@@H](NC(=O)[C@H](Cc1ccccc1)NC(=O)[C@H](CO)NC(=O)CNC(=O)[C@H](CCC(=O)O)NC(=O)C(C)(C)NC(=O)[C@@H](N)Cc1c[nH]cn1)[C@@H](C)O)[C@@H](C)O)[C@@H](C)CC)C(=O)N[C@@H](C)C(=O)N[C@@H](Cc1c[nH]c2ccccc12)C(=O)N[C@@H](CC(C)C)C(=O)N[C@@H](Cc1c[nH]cn1)C(=O)N[C@@H](C)C(=O)N[C@@H](Cc1c[nH]cn1)C(=O)N[C@@H](CCCCN)C(=O)N[C@H](C(=O)N[C@H](C(=O)N[C@@H](CC(=O)O)C(=O)O)[C@@H](C)O)[C@@H](C)CC
Regarding B5, the “EC50 GLP-1 (nM); cAMP AlphaScreen” value in experiment [1] was 0.28 nM. In addition, the “EC50 GLP-2 (nM); cAMP AlphaScreen” value in experiment [2] was 0.042 nM.

B6: Compound 20 (peptide)
peptide: H-H[Aib]EGTFTSELATILDEQAARDFIAWLIAYKITD-OH
SMILES: CC[C@H](C)[C@H](NC(=O)[C@H](CC(C)C)NC(=O)[C@H](Cc1c[nH]c2ccccc12)NC(=O)[C@H](C)NC(=O)[C@@H](NC(=O)[C@H](Cc1ccccc1)NC(=O)[C@H](CC(=O)O)NC(=O)[C@H](CCCNC(=N)N)NC(=O)[C@H](C)NC(=O)[C@H](C)NC(=O)[C@H](CCC(N)=O)NC(=O)[C@H](CCC(=O)O)NC(=O)[C@H](CC(=O)O)NC(=O)[C@H](CC(C)C)NC(=O)[C@@H](NC(=O)[C@@H](NC(=O)[C@H](C)NC(=O)[C@H](CC(C)C)NC(=O)[C@H](CCC(=O)O)NC(=O)[C@H](CO)NC(=O)[C@@H](NC(=O)[C@H](Cc1ccccc1)NC(=O)[C@@H](NC(=O)CNC(=O)[C@H](CCC(=O)O)NC(=O)C(C)(C)NC(=O)[C@@H](N)Cc1c[nH]cn1)[C@@H](C)O)[C@@H](C)O)[C@@H](C)O)[C@@H](C)CC)[C@@H](C)CC)C(=O)N[C@@H](C)C(=O)N[C@@H](Cc1ccc(O)cc1)C(=O)N[C@@H](CCCCN)C(=O)N[C@H](C(=O)N[C@H](C(=O)N[C@@H](CC(=O)O)C(=O)O)[C@@H](C)O)[C@@H](C)CC
For B6, in experiment [1], the “EC50 GLP-1 (nM); cAMP AlphaScreen” value amounted to 0.012 nM. For the same molecule, the “EC50 GLP-2 (nM); cAMP AlphaScreen” value in experiment [2] turned out to be 0.26 nM.

B7: Compound 23 (peptide)
peptide: H-H[Aib]EGSFTSELATILDEQAARDFIAWLYEHKITD-OH
SMILES: CC[C@H](C)[C@H](NC(=O)[C@H](Cc1ccccc1)NC(=O)[C@H](CC(=O)O)NC(=O)[C@H](CCCNC(=N)N)NC(=O)[C@H](C)NC(=O)[C@H](C)NC(=O)[C@H](CCC(N)=O)NC(=O)[C@H](CCC(=O)O)NC(=O)[C@H](CC(=O)O)NC(=O)[C@H](CC(C)C)NC(=O)[C@@H](NC(=O)[C@@H](NC(=O)[C@H](C)NC(=O)[C@H](CC(C)C)NC(=O)[C@H](CCC(=O)O)NC(=O)[C@H](CO)NC(=O)[C@@H](NC(=O)[C@H](Cc1ccccc1)NC(=O)[C@H](CO)NC(=O)CNC(=O)[C@H](CCC(=O)O)NC(=O)C(C)(C)NC(=O)[C@@H](N)Cc1c[nH]cn1)[C@@H](C)O)[C@@H](C)O)[C@@H](C)CC)C(=O)N[C@@H](C)C(=O)N[C@@H](Cc1c[nH]c2ccccc12)C(=O)N[C@@H](CC(C)C)C(=O)N[C@@H](Cc1ccc(O)cc1)C(=O)N[C@@H](CCC(=O)O)C(=O)N[C@@H](Cc1c[nH]cn1)C(=O)N[C@@H](CCCCN)C(=O)N[C@H](C(=O)N[C@H](C(=O)N[C@@H](CC(=O)O)C(=O)O)[C@@H](C)O)[C@@H](C)CC
For the molecule B7, in experiment [1], the “EC50 GLP-1 (nM); cAMP AlphaScreen” value worked out at 0.12 nM. The “EC50 GLP-2 (nM); cAMP AlphaScreen” value in experiment [2] was determined as 0.034 nM.

The values are drawn from patent US11130793B2, “GLP-1/GLP-2 dual agonists” (Zealand Pharma A/S, priority 2016, dated 2021).
